Experimental data published in article PMC2783259.
Where two headings read alike, the source gives them in different places.

Assays:
[1] = molecular target: human FcγRIA (CD64) co-expressed with the common γ chain on CV-1 cells (human) (UniProt P12314); assay: inhibition of rosette formation
[2] = molecular target: human FcγRIIA (CD32), H131 allotype, on CV-1 cells (human) (UniProt P12318); assay: inhibition of rosette formation
[3] = molecular target: human FcγRIIA (CD32), H131 allotype, on CV-1 cells (human) (UniProt P12318); assay: inhibition of rosette formation; remark: listed apart in the source
[4] = molecular target: human FcγRIA (CD64) co-expressed with the common γ chain on CV-1 cells (human) (UniProt P12314); assay: inhibition of rosette formation; remark: listed apart in the source
[5] = molecular target: human FcγRIIA (CD32), R131 allotype, on CV-1 cells (human); assay: inhibition of rosette formation
[6] = molecular target: The FcγRIA and FcγRIIA transfectants; assay: rosette formation

| Substance | percent inhibition of rosette formation [4] [%] | percent inhibition of rosette formation [5] [%] | other results |
| --- | --- | --- | --- |
| human IgG2 myeloma protein, heat-aggregated (antibody) | – | – | percent inhibition of rosette formation [1]: 20%; percent inhibition of rosette formation [2]: 65%; percent inhibition of rosette formation [3]: 60% |
| human IgG3 myeloma protein, heat-aggregated (antibody) | > 90 | > 90 | – |
| rabbit IgG on opsonized sheep red blood cells (SRBC) (antibody) | – | – | percent rosette formation [6]: 82 to 97% |
| human IgG1 myeloma protein, heat-aggregated (antibody) | > 90 | > 90 | – |
